According to patent publication US20260207766A1 (Bristol-Myers Squibb, published 2026):
Changes are numbered by the printed parent chain.

Legend:
[1] = target: T1, human CEACAM6 on HCT116 cells (human, UniProt P40199 35-320); experiment: flow cytometry on HCT-116 (CEACAM-6) cells
T1 construct: whole, on cells; also called HCT116-huCEACAM6
T1 sequence (looked up): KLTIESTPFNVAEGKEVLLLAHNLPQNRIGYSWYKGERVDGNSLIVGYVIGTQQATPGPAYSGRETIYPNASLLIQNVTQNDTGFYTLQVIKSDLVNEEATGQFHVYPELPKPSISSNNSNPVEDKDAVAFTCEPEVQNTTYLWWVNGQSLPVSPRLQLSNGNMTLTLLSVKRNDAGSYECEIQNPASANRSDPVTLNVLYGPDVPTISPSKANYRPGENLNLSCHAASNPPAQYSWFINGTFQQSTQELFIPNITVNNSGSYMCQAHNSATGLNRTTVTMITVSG

[2] = target: T2, human CEACAM1 on CHO-S cells (human, UniProt P13688 35-526); experiment: flow cytometry, CHO-S cells overexpressing human CEACAM1
T2 construct: whole, on cells; also called CHO-S-huCEACAM1
T2 sequence (looked up): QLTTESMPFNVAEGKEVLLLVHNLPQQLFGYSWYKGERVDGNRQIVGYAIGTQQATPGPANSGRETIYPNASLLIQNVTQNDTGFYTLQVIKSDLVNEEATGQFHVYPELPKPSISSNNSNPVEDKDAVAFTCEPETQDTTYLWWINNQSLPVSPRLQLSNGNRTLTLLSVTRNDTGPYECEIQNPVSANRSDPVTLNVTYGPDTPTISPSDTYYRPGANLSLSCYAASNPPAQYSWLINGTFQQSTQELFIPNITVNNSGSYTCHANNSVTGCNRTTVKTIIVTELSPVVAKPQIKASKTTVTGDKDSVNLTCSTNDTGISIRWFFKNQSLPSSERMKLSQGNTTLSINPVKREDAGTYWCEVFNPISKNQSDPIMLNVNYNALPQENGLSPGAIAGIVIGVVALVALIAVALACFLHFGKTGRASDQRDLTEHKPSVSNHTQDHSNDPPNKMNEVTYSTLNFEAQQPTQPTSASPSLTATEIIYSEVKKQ

human CEACAM5 on cells [3] = target: T3, human CEACAM5 on cells (human, UniProt P06731 35-685); experiment: cell binding, MKN45 cells
T3 construct: Endogenous on MKN45, Ls174T, BxPC-3; overexpressed on HCT116; also called huCEACAM5; HCT116-huCEACAM5
T3 sequence: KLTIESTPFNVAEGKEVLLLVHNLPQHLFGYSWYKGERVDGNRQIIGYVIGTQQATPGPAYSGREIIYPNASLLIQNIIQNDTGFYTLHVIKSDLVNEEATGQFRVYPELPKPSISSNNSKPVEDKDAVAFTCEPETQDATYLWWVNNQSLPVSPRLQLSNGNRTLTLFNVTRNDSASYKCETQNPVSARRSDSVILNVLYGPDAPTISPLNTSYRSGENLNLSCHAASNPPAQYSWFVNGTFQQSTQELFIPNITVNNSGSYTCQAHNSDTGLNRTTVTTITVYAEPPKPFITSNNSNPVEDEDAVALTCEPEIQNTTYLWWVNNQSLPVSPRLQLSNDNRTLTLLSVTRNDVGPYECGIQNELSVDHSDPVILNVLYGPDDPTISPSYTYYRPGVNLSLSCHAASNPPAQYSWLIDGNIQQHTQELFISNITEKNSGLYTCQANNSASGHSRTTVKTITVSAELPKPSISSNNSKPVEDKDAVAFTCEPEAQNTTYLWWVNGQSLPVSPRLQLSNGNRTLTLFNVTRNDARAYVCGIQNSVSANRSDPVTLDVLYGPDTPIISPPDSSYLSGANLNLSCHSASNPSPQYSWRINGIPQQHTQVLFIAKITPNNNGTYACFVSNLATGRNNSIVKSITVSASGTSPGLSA

6xHis-A3-B3 huCEACAM5 [4] = target: T4, 6xHis-A3-B3 huCEACAM5 (human, UniProt P06731 501-685, N-linked glycans (seven predicted sites)); experiment: SPR Biacore 8K 37C, mAb captured on anti-human Fc, antigen analyte, 1:1 Langmuir fit
T4 construct: For cryo-EM it was expressed in Expi293F GnTI- cells; also called hCEACAM5-A3-B3 construct; human CEACAM5 A3-B3 domain protein
T4 sequence: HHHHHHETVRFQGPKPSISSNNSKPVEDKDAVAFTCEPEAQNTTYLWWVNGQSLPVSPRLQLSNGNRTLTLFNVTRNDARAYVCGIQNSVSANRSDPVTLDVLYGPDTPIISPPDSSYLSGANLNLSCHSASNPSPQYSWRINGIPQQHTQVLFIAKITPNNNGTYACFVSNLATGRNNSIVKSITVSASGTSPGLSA

human CEACAM5 on cells [5] = target: T3, human CEACAM5 on cells; experiment: FACS on BxPC3 cells
human CEACAM5 on cells [6] = target: T3, human CEACAM5 on cells; experiment: FACS on MKN45 cells
human CEACAM5 on cells [7] = target: T3, human CEACAM5 on cells; experiment: FACS on LS174T cells
human CEACAM5 on cells [8] = target: T3, human CEACAM5 on cells; experiment: cell-based or functional assay
[9] = target: T5, human CEACAM8 (R&D Systems catalog #9639-CM-050) (human, UniProt P31997 35-320, limits assumed); experiment: SPR
T5 sequence (looked up): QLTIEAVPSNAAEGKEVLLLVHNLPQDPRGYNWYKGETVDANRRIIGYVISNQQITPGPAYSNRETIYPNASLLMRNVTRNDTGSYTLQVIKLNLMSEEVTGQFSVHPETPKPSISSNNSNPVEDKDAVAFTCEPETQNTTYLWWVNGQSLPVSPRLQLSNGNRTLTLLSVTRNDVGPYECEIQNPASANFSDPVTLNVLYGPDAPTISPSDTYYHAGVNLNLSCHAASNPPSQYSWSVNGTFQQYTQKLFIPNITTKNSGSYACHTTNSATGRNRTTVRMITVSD

[10] = target: T6, human CEACAM7 (R&D Systems catalog #9010-CM-050) (human, UniProt Q14002 36-242, limits assumed); experiment: SPR
T6 sequence (looked up): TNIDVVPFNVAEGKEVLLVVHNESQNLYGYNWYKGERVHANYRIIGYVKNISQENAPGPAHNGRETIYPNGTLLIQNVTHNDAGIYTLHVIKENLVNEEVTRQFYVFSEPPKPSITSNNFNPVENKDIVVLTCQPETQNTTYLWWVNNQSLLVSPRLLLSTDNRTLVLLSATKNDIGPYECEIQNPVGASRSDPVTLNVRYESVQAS

[11] = target: T7, full-length human CEACAM5 (recombinant, internally generated) (human, UniProt P06731 35-685, limits assumed); experiment: SPR Biacore, mAb captured on anti-human Fc, full-length antigen analyte, 1:1 fit
T7 construct: Printed only as 'full-length'; also called Full-length huCEACAM5; biotinylated human CEACAM5
T7 sequence: T3 sequence
From the text: The BIACORE® instrument was primed with 1×HBSP+ running buffer (Cytiva catalog no. BR100671). The CM5 chip (Cytiva catalog no. 29149604) was equilibrated to room temperature, and the BIACORE® instrument was re-primed. A human antibody Fc capture kit (Cytiva catalog no. 29234600) was utilized for this analysis. The human antibody Fc capture reagent was immobilized to both flow cells in all 8 flow channels of the CM5 chip via amine-coupling using the following conditions. Immobilization was performed at a temperature of 25° C. The anti-human Fc capture reagent was diluted to a concentration of 25 μg/mL in acetate pH5 buffer. The chip surface was activated by injecting a mixture of 1-ethyl-3-(-3-dimethylaminopropyl) carbodiimide hydrochloride (EDC) and N-hydroxy succinimide (NHS) for 420 seconds at a rate of 10 microliters per minute (uL/min). A concentration (25 ug/mL) of anti-human Fc capture reagent was then injected on the surface for 420 seconds at a rate of 10 uL/min. The remaining chip surface was blocked by injecting ethanolamine for 420 seconds at a rate of 10 uL/min.
The SPR kinetics against full-length human and cyno CEACAM5 were set up as follows. The antibody capture was performed by diluting the antibodies to a concentration of 10 nM in HBSP+ buffer. The 10 nM mAbs were captured for 20 seconds at 5 uL/min to achieve capture levels of approximately 100 RU. […] The association rate was 180 seconds at 30 uL/min. The dissociation rate was 600 seconds at 30 uL/min. Regeneration was performed using two injections of 3M magnesium chloride MgCl₂ for 30 seconds at 30 uL/min. A data fit was performed using a 1:1 binding model with global Rmax. Rmax reflects the maximal response when all ligand is occupied.

[12] = target: T2, human CEACAM1 on CHO-S cells; experiment: flow cytometry on CHO-S (CEACAM-1) cells
6xHis-A3-B3 huCEACAM5 [13] = target: T4, 6xHis-A3-B3 huCEACAM5; experiment: cryo-EM of CEACAM5 A3-B3 with both Fabs
Experimental: Below is a description of the different steps and methods that were performed.
After the incubation period, 50 μl of complexing reaction solution was passed through a Bio-Spin 30 Size-exclusion chromatography column (30 kDa MWCO, BioRad) to remove any contaminants and Apo-CEACAM5. Prior to use, Bio-Spin 30 columns were equilibrated with 1×PBS, and samples were applied according to the manufacturer's protocol.

B1: MBN001 (antibody, V domains shown)
VH: QVQLVETGGGVVQPGRSLRLSCAASGITFSSHGMHWVRQSPGKGLEWVTFISYDGSYKSYVDSVKGRFAISRDNSKNTLYLQMNSLRPEDTAVYYCATGLTGTGAFDIWGQGTMVTVSS
VL: not shown
notes: also called mAb MBN001; MBN001 parent
[1]
  binding result: no binding (tested: 300 nM)
[2]
  binding result: no binding
Human CEACAM5 on cells [3]
  EC50: 33.8 nM
6xHis-A3-B3 huCEACAM5 [4]
  Kd: 129 nM
Human CEACAM5 on cells [5]
  EC50: 1.8 nM
Human CEACAM5 on cells [6]
  EC50: 2.2 nM
Human CEACAM5 on cells [7]
  EC50: 1.7 nM

B2: MBP002 (antibody, IgG1, V domains shown)
VH: B1 VH with T7S, S40A, A69T, P88A, G104N, F106L
VL: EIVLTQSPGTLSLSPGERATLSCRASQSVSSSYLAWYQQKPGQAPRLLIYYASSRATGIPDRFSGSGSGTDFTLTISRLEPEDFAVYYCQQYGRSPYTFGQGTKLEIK
notes: also called hIgG1 form of MBP008
[1]
  binding result: no binding (tested: 300 nM)
Human CEACAM5 on cells [8]
  Ls174T 5-day cytotoxicity (AUC), antibody conjugated to Compound A': 18900
  MKN45 5-day cytotoxicity (AUC), antibody conjugated to Compound A': 24100
[9]
  binding result: no binding
[10]
  binding result: no binding
[11]
  Kd: 5.26 nM
  koff: 0.000228 s⁻¹
  kon: 43300 M⁻¹ s⁻¹
Human CEACAM5 on cells [5]
  EC50: 1.9 nM
[12]
  binding result: no binding (tested: 300 nM)
Human CEACAM5 on cells [6]
  EC50: 2.1 nM
Human CEACAM5 on cells [7]
  EC50: 1.5 nM

B3: Fab of bin 2 mAb (Fab, V domains shown)
VH: QVQLQESGPGLVKPSGTLSLTCAVSGGSISSSDWWSWVRQPPGKGLEWIGEIYHQGSTNYNPSLKSRVTISVDKSKNQFSLKLSSVTAADTAVYYCARASSSGYYGHDVWGQGTTVTVSS
VL: DIQLTQSPSFLSASVGDRVTITCRASQGISTYLAWYQQKPGKAPKFLIYAEKTLQSGVPSRFSGSGSGTEFTLTISSLQPEDFATYYCQQLASYPFTFGPGTKVDIKR
notes: also called anti-CEACAM5 bin2 mAb Fab
6xHis-A3-B3 huCEACAM5 [13]
  binding result: binds
